This note sets out measurements from PMC6389977.

The experiment has as its target purified recombinant human GAPDH protein (human) (UniProt P04406). The experiment can be described thus: SPR. A general note: In SPR one partner is held on a chip, and binding of the other changes the refractive index at the surface.

purified recombinant human GAPDH protein (human), sequence (P04406 whole entry): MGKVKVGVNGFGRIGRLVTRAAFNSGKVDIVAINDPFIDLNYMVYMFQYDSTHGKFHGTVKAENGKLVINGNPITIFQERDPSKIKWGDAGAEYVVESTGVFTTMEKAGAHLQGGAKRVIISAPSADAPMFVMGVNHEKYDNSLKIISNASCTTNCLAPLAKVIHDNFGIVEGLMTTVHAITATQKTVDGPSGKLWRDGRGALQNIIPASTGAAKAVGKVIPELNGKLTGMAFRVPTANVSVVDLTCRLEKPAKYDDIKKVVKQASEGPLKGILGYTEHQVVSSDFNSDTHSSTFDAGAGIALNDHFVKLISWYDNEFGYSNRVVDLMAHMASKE
DENV2 NS3 protease domain (domain or fragment), sequence (P14340 1476-1660 limits assumed): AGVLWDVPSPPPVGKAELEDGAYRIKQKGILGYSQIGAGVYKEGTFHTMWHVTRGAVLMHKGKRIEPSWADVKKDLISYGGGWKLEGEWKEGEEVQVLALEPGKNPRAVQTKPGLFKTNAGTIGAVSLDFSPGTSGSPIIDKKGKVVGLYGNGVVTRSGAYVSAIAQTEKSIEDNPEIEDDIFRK
DENV2 NS3 helicase domain (domain or fragment), sequence (P14340 1644-2093 limits assumed): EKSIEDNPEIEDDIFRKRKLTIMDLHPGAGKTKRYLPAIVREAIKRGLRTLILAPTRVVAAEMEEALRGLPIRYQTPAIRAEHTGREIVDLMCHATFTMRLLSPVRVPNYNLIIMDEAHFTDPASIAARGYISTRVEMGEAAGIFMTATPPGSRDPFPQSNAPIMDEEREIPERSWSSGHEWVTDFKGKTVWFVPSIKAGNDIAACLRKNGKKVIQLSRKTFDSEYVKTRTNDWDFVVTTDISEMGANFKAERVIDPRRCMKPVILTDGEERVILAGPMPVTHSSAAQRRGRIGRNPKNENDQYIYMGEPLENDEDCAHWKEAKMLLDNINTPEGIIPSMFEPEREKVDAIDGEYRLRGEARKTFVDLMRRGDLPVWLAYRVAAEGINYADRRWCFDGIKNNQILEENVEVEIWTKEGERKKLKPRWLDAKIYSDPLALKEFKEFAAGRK

For the substance “DENV2 NS3 protease domain (domain or fragment)”, the Kd stood at 2.4 µM.

As to “DENV2 NS3 helicase domain (domain or fragment)”, the equilibrium dissociation constant (Kd) amounted to 2.5 µM.

By Kd is commonly meant a measure of binding affinity in units of concentration.
